In patent publication US20210371538A1 (Genmab, published 2021):

Biological target: T1, CD20 (human, UniProt P11836 1-297, limits assumed)
T1 construct: The KD sentence says only 'CD20'; also called human CD20; B-cell antigen CD20
T1 sequence (looked up): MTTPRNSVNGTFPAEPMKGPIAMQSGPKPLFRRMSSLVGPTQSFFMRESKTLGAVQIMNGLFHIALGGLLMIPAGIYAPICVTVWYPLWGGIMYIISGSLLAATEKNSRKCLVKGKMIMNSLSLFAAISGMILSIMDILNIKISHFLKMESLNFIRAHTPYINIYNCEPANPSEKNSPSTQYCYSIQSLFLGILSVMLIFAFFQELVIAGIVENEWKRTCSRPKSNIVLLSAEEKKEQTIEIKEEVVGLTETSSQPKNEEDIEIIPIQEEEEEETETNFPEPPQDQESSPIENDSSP
Experiment: in vitro measurement, method not stated; used as a PK/PD model parameter

B1: DuoBody-CD3×CD20 (bispecific antibody, human IgG1, kappa, lambda)
heavy 1: not shown
light 1: not shown
heavy 2: EVQLVESGGGLVQPDRSLRLSCAASGFTFHDYAMHWVRQAPGKGLEWVSTISWNSGTIGYADSVKGRFTISRDNAKNSLYLQMNSLRAEDTALYYCAKDIQYGNYYYGMDVWGQGTTVTVSSASTKGPSVFPLAPSSKSTSGGTAALGCLVKDYFPEPVTVSWNSGALTSGVHTFPAVLQSSGLYSLSSVVTVPSSSLGTQTYICNVNHKPSNTKVDKRVEPKSCDKTHTCPPCPAPEFEGGPSVFLFPPKPKDTLMISRTPEVTCVVVAVSHEDPEVKFNWYVDGVEVHNAKTKPREEQYNSTYRVVSVLTVLHQDWLNGKEYKCKVSNKALPAPIEKTISKAKGQPREPQVYTLPPSREEMTKNQVSLTCLVKGFYPSDIAVEWESNGQPENNYKTTPPVLDSDGSFFLYSRLTVDKSRWQQGNVFSCSVMHEALHNHYTQKSLSLSPG
light 2: not shown
notes: Full-length IgG1 bispecific with an inert Fc (L234F, L235E, D265A), made by controlled Fab-arm exchange of IgG1-CD3-FEAL and IgG1-CD20-FEAR; One heavy/light pair for each arm; also called epcoritamab; GEN3013
Kd: 5.4 nM
